{"source": "paper PMC8928829", "data": [{"target": "NIH-CoVnb-112", "sequence (heavy, as listed by the source)": "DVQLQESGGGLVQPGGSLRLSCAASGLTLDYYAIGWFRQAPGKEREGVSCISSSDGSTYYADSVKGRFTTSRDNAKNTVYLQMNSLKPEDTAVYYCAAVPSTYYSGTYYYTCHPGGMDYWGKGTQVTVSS", "assay": "BLI", "units": {"Kd": "nM"}, "values": [{"substance": "SARS-CoV-2 RBD T478K (from UniProt P0DTC2) (domain or fragment)", "Kd": 0.497}, {"substance": "SARS-CoV-2 RBD K417N (from UniProt P0DTC2) (domain or fragment)", "Kd": 1.42}, {"substance": "SARS-CoV-2 RBD L452R (from UniProt P0DTC2) (domain or fragment)", "Kd": 4.88}]}]}
